B1: 16-B2 (Fab, V domains shown)
VH: QVQLVQSGAEVKKPGASVKVSCKASGYTFTNYDIIWVRQAPGQGLEWMGYINPYNDGTKYNEKFKGRVTMTRDTSTSTVYMELSSLRSEDTAVYYCARLLKYRRFRYYAIDYWGQGTTVTVSS
VL: DIQMTQSPSSLSASVGDRVTITCRASENVYSNLAWYQQKPGKAPKLLIYAASNLQSGVPSRFSGSGSGTDFTFTISSLQPEDIATYYCQHFWGSPFTFGQGTKLEIK
notes: Fab
B2: 1-A11 (Fab, V domains shown)
VH: QVQLVQSGAEVKKPGASVKVSCKASGYTFTNYVILWVRQAPGQGLEWMGYINPYNDGTKYNEKFKGRVTMTRDTSTSTVYMELSSLRSEDTAVYYCARLLKYRRFSYYAIDYWGQGTTVTVSS
VL: DIQMTQSPSSLSASVGDRVTITCRASENVYSNLAWYQQKPGKAPKLLIYAASNLQSGVPSRFSGSGSGTDFTFTISSLQPEDIATYYCQHFWYSPFTFGQGTKLEIK
notes: Fab
B3: 1-A6 (Fab, V domains shown)
VH: QVQLVQSGAEVKKPGASVKVSCKASGYTFTNYVILWVRQAPGQGLEWMGYINPYNDGTKYNEKFKGRVTMTRDTSTSTVYMELSSLRSEDTAVYYCARLLKYRRHSYYAIDYWGQGTTVTVSS
VL: DIQMTQSPSSLSASVGDRVTITCRASENVYSNLAWYQQKPGKAPKLLIYAASNLQSGVPSRFSGSGSGTDFTFTISSLQPEDIATYYCQHFWKSPFTFGQGTKLEIK
notes: Fab
B4: 2-B1 (Fab, V domains shown)
VH: QVQLVQSGAEVKKPGASVKVSCKASGYTFTNYVILWVRQAPGQGLEWMGYINPYNDGTKYNEKFKGRVTMTRDTSTSTVYMELSSLRSEDTAVYYCARLLKYRRFSYYAIDYWGQGTTVTVSS
VL: DIQMTQSPSSLSASVGDRVTITCRASENVYSNLAWYQQKPGKAPKLLIYAASNLQSGVPSRFSGSGSGTDFTFTISSLQPEDIATYYCQNFWYSPFTFGQGTKLEIK
notes: Fab
B5: 2-F6 (Fab, V domains shown)
VH: QVQLVQSGAEVKKPGASVKVSCKASGYTFTNYVILWVRQAPGQGLEWMGYINPYNDGTKYNEKFKGRVTMTRDTSTSTVYMELSSLRSEDTAVYYCARLLKYRRFRYYAIDYWGQGTTVTVSS
VL: DIQMTQSPSSLSASVGDRVTITCRASENVYSNLAWYQQKPGKAPKLLIYAASNLQSGVPSRFSGSGSGTDFTFTISSLQPEDIATYYCQHFWYSPFTFGQGTKLEIK
notes: Fab
B6: 2-G12 (Fab, V domains shown)
VH: QVQLVQSGAEVKKPGASVKVSCKASGYTFTNYVILWVRQAPGQGLEWMGYINPYNDGTKYNEKFKGRVTMTRDTSTSTVYMELSSLRSEDTAVYYCARLLKYRRFRYYAIDYWGQGTTVTVSS
VL: DIQMTQSPSSLSASVGDRVTITCRASENVYSNLAWYQQKPGKAPKLLIYAASNLQSGVPSRFSGSGSGTDFTFTISSLQPEDIATYYCQHFWYRPFTFGQGTKLEIK
notes: Fab
B7: 1-E9 (Fab, V domains shown)
VH: QVQLVQSGAEVKKPGASVKVSCKASGYTFTNYVILWVRQAPGQGLEWMGYINPYNDGTKYNEKFKGRVTMTRDTSTSTVYMELSSLRSEDTAVYYCARLLKYRRMSYYAIDYWGQGTTVTVSS
VL: DIQMTQSPSSLSASVGDRVTITCRASENVYSNLAWYQQKPGKAPKLLIYAASNLQSGVPSRFSGSGSGTDFTFTISSLQPEDIATYYCQHFWYSPFTFGQGTKLEIK
notes: Fab
B8: 1-B10 (Fab, V domains shown)
VH: QVQLVQSGAEVKKPGASVKVSCKASGYTFTNYVILWVRQAPGQGLEWMGYINPYNDGTKYNEKFKGRVTMTRDTSTSTVYMELSSLRSEDTAVYYCARLLKYRRFSFYAIDYWGQGTTVTVSS
VL: DIQMTQSPSSLSASVGDRVTITCRASENVYSNLAWYQQKPGKAPKLLIYAASNLQSGVPSRFSGSGSGTDFTFTISSLQPEDIATYYCQGFWYSPFTFGQGTKLEIK
notes: Fab
B9: 3-G5 (Fab, V domains shown)
VH: QVQLVQSGAEVKKPGASVKVSCKASGYTFTNYVILWVRQAPGQGLEWMGYINPYNDGTKYNEKFKGRVTMTRDTSTSTVYMELSSLRSEDTAVYYCARLLKYRRFSYYAIDYWGQGTTVTVSS
VL: DIQMTQSPSSLSASVGDRVTITCRASENVYSNLAWYQQKPGKAPKLLIYAASNLQSGVPSRFSGSGSGTDFTFTISSLQPEDIATYYCQNFWYSPFTFGQGTKLEIK
notes: Fab
B10: 1-B11 (Fab, V domains shown)
VH: QVQLVQSGAEVKKPGASVKVSCKASGYTFTNYVILWVRQAPGQGLEWMGYINPYNDGTKYNEKFKGRVTMTRDTSTSTVYMELSSLRSEDTAVYYCARLLKYRRFSYYAIDYWGQGTTVTVSS
VL: DIQMTQSPSSLSASVGDRVTITCRASENVYSNLAWYQQKPGKAPKLLIYAASNLQSGVPSRFSGSGSGTDFTFTISSLQPEDIATYYCQNFWYSPFTFGQGTKLEIK
notes: Fab
B11: 1-H6 (Fab, V domains shown)
VH: QVQLVQSGAEVKKPGASVKVSCKASGYTFTNYVILWVRQAPGQGLEWMGYINPYNDGTKYNEKFKGRVTMTRDTSTSTVYMELSSLRSEDTAVYYCARLLKYRRFSYYAIDYWGQGTTVTVSS
VL: DIQMTQSPSSLSASVGDRVTITCRASENVYSNLAWYQQKPGKAPKLLIYAASNLQSGVPSRFSGSGSGTDFTFTISSLQPEDIATYYCQHFWWSPFTFGQGTKLEIK
notes: Fab
B12: 1-D3 (Fab, V domains shown)
VH: QVQLVQSGAEVKKPGASVKVSCKASGYTFTNYVILWVRQAPGQGLEWMGYINPYNDGTKYNEKFKGRVTMTRDTSTSTVYMELSSLRSEDTAVYYCARLLKYRRFSYYAIDEWGQGTTVTVSS
VL: DIQMTQSPSSLSASVGDRVTITCRASENVYSNLAWYQQKPGKAPKLLIYAASNLQSGVPSRFSGSGSGTDFTFTISSLQPEDIATYYCQHFWYSPFTFGQGTKLEIK
notes: Fab
B13: 3-F11 (Fab, V domains shown)
VH: QVQLVQSGAEVKKPGASVKVSCKASGYTFTNYVILWVRQAPGQGLEWMGYINPYNDGTKYNEKFKGRVTMTRDTSTSTVYMELSSLRSEDTAVYYCARLLKYRRFRYYAIDYWGQGTTVTVSS
VL: DIQMTQSPSSLSASVGDRVTITCRASENVYSNLAWYQQKPGKAPKLLIYAASNLQSGVPSRFSGSGSGTDFTFTISSLQPEDIATYYCQHFWYSPFTFGQGTKLEIK
notes: Fab
B14: 3-F10 (Fab, V domains shown)
VH: QVQLVQSGAEVKKPGASVKVSCKASGYTFTNYVILWVRQAPGQGLEWMGYINPYNDGTKYNEKFKGRVTMTRDTSTSTVYMELSSLRSEDTAVYYCARLLKYRRFSYYAIDYWGQGTTVTVSS
VL: DIQMTQSPSSLSASVGDRVTITCRASENVYSNLAWYQQKPGKAPKLLIYAASNLQSGVPSRFSGSGSGTDFTFTISSLQPEDIATYYCQHFWYSPFKFGQGTKLEIK
notes: Fab
B15: 2-F10 (Fab, V domains shown)
VH: QVQLVQSGAEVKKPGASVKVSCKASGYTFTNYVILWVRQAPGQGLEWMGYINPYNDGTKYNEKFKGRVTMTRDTSTSTVYMELSSLRSEDTAVYYCARLLKYRRFSYYAIDYWGQGTTVTVSS
VL: DIQMTQSPSSLSASVGDRVTITCRASENVYSNLAWYQQKPGKAPKLLIYAASNLQSGVPSRFSGSGSGTDFTFTISSLQPEDIATYYCQVFWYSPFTFGQGTKLEIK
notes: Fab
B16: 1-G12 (Fab, V domains shown)
VH: QVQLVQSGAEVKKPGASVKVSCKASGYTFTNYVILWVRQAPGQGLEWMGYINPYNDGTKYNEKFKGRVTMTRDTSTSTVYMELSSLRSEDTAVYYCARLLKYRRFSYYAIDYWGQGTTVTVSS
VL: DIQMTQSPSSLSASVGDRVTITCRASENVYSNLAWYQQKPGKAPKLLIYAASNLQSGVPSRFSGSGSGTDFTFTISSLQPEDIATYYCQHFWYSPFGFGQGTKLEIK
notes: Fab
B17: 3-F2 (Fab, V domains shown)
VH: QVQLVQSGAEVKKPGASVKVSCKASGYTFTNYVILWVRQAPGQGLEWMGYINPYNDGTKYNEKFKGRVTMTRDTSTSTVYMELSSLRSEDTAVYYCARLLKYRRFSYYAIDYWGQGTTVTVSS
VL: DIQMTQSPSSLSASVGDRVTITCRASENVYSNLAWYQQKPGKAPKLLIYAASNLQSGVPSRFSGSGSGTDFTFTISSLQPEDIATYYCQHFWYSPFIFGQGTKLEIK
notes: Fab
B18: 2-A2 (Fab, V domains shown)
VH: QVQLVQSGAEVKKPGASVKVSCKASGYTFTNYVILWVRQAPGQGLEWMGYINPYNDGTKYNEKFKGRVTMTRDTSTSTVYMELSSLRSEDTAVYYCARLLKYRRLSYYAIDYWGQGTTVTVSS
VL: DIQMTQSPSSLSASVGDRVTITCRASENVYSNLAWYQQKPGKAPKLLIYAASNLQSGVPSRFSGSGSGTDFTFTISSLQPEDIATYYCQHFWYSPFTFGQGTKLEIK
notes: Fab
B19: 3-B11 (Fab, V domains shown)
VH: QVQLVQSGAEVKKPGASVKVSCKASGYTFTNYVILWVRQAPGQGLEWMGYINPYNDGTKYNEKFKGRVTMTRDTSTSTVYMELSSLRSEDTAVYYCARLLKYRRFRYYAIDYWGQGTTVTVSS
VL: DIQMTQSPSSLSASVGDRVTITCRASENVYSNLAWYQQKPGKAPKLLIYAASNLQSGVPSRFSGSGSGTDFTFTISSLQPEDIATYYCQHFWYSGFTFGQGTKLEIK
notes: Fab
B20: 3-F7 (Fab, V domains shown)
VH: QVQLVQSGAEVKKPGASVKVSCKASGYTFTNYVILWVRQAPGQGLEWMGYINPYNDGTKYNEKFKGRVTMTRDTSTSTVYMELSSLRSEDTAVYYCARLLKYRRFRYYAIDYWGQGTTVTVSS
VL: DIQMTQSPSSLSASVGDRVTITCRASENVYSNLAWYQQKPGKAPKLLIYAASNLQSGVPSRFSGSGSGTDFTFTISSLQPEDIATYYCQHFWKSPFTFGQGTKLEIK
notes: Fab
B21: 3-C12 (Fab, V domains shown)
VH: QVQLVQSGAEVKKPGASVKVSCKASGYTFTNYVILWVRQAPGQGLEWMGYINPYNDGTKYNEKFKGRVTMTRDTSTSTVYMELSSLRSEDTAVYYCARLLKYRRFSYYAIDYWGQGTTVTVSS
VL: DIQMTQSPSSLSASVGDRVTITCRASENVYSNLAWYQQKPGKAPKLLIYAASNLQSGVPSRFSGSGSGTDFTFTISSLQPEDIATYYCQHFWGSPFTFGQGTKLEIK
notes: Fab

Sequence of TrkB (Q16620 32-430 limits assumed): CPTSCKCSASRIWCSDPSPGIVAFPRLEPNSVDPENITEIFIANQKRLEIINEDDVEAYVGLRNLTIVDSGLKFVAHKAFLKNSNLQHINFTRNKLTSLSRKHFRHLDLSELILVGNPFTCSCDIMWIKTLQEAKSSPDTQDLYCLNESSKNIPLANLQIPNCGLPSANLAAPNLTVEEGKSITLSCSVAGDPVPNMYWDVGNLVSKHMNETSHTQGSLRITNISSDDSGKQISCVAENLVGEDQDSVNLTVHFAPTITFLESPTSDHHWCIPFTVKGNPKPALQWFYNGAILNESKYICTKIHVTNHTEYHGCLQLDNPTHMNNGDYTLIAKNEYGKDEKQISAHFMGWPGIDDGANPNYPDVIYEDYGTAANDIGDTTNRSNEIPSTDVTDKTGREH

The assay addresses TrkB (Homo sapiens (Human), UniProt Q16620 32-430). In words: koff of Fab at 25 C; T1/2=Log2/koff. The method, boiled down: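 Monovalent Fab fragments were tested at 25° C by surface plasmon resonance on a Biacore instrument, against TrkB extracellular-domain monomer amine-coupled to the chip at low capacity. Fabs were injected low to high as a 3-fold serial dilution from 100 nM for 84 sec, with a 10 minute dissociation after the top sample. The dissociation half-life was calculated from koff, which was fitted to a Langmuir binding model in BIAevaluation. The formula used was T1/2 = Log 2/koff.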
In turn, B1 had a T1/2 of 5 min. To B2 belongs 1.08 min; to B3, 0.42 min. For B4, the T1/2 was 0.32 min. In the case of B5, the T1/2 was 0.23 min. B6: the T1/2 turned out to be 0.3 min. To B7 belongs 1.04 min; to B8, 0.55 min. B9 yielded a T1/2 of 1.21 min. B10 gave a T1/2 of 0.72 min.

As for B11, the T1/2 turned out to be 0.62 min.

B12 displayed a T1/2 of 0.92 min. In turn, B13 had a T1/2 of 1.16 min. To B14 belongs 0.79 min; to B15, 0.48 min. Turning to B16, the T1/2 is 0.4 min. To B17 belongs 1.38 min; to B18, 0.57 min.

Molecule B19 returned a T1/2 of 0.87 min. Consider B20, for which the T1/2 is 1.01 min.

In turn, B21 showed a T1/2 of 0.84 min.

The record behind these values is US20100196390A1 (RINAT NEUROSCIENCE, published 2010).
